Data as given in patent publication US20250011468A1 (Novo Nordisk, published 2025).

What was measured:
Test in all cases: cell-based or functional assay
[1] = target: T1, human plasma-derived FIXa (Haematologic Technologies Inc) (human, UniProt P00740 47-191; P00740 227-461)
[2] = target: T1, human plasma-derived FIXa (Haematologic …); remark: listed apart in the source
[3] = target: T1, human plasma-derived FIXa (Haematologic …); remark: listed apart in the source

T1 sequence (P00740 47-191, chain 1 of 2): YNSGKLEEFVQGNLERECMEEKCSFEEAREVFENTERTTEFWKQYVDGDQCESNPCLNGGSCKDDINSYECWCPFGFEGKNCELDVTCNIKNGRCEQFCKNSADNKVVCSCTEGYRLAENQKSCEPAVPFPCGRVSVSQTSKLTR
T1 sequence (P00740 227-461, chain 2 of 2): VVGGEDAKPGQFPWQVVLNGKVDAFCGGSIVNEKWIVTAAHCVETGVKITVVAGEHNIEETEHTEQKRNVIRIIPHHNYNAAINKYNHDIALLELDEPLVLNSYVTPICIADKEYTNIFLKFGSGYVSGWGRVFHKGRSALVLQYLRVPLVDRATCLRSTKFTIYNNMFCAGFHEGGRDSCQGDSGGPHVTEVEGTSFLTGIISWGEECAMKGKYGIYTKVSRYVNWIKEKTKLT

Binder	FXa generation rate at 3.2 nM mAb [1] [pM/min]	FXa generation rate at 6.3 nM mAb [1] [pM/min]	FXa generation rate at 12.5 nM mAb [1] [pM/min]	FXa generation rate at 25 nM mAb [1] [pM/min]	FXa generation rate at 50 nM mAb [1] [pM/min]	FXa generation rate at 100 nM mAb [1] [pM/min]	FXa generation rate at 200 nM mAb [1] [pM/min]	Peak stimulatory activity relative to 224F3 [2]	Maximum stimulation (fold), at 4060 nM BiAb [3] [fold]	Maximum stimulation (fold), at 533 nM BiAb [3] [fold]	Maximum stimulation (fold), at 253 nM BiAb [3] [fold]
mAb1-4857 (antibody, V domains shown) VH: EVQLVESGGGLVQPGRSLKLSCAASGFTFDDYAMHWVRQVPGKGLEWVSGISWRGDIIGYVDSVKGRFTISRDNAKNSLYLQLNSLRAEDTALYYCVKSYGSGSFYNAFDSWGQGTLVTVSS VL: DIQMTQSPSTLSASAGDRVTITCRASQSISSWLAWYQQKPGKAPKFLIYKASRLERGVPSRFSGSGSGTEFSLTISSLQPDDFATYYCLEYSSYIRTFGQGTKVEIK	302	491	685	1000	1190	1260	1300	66.5 fold relative to 224F3	–	–	–
mAb1-4861 (antibody, V domains shown) VH: EVQLVESGGGLVQPGRSLKLSCAASGFTFDDYAMHWVRQVPGKGLEWVSGISWNGDNIGYVDSVKGRFTISRDNAKNSLYLQLNSLRAEDTALYYCVKSYGSGSFYNAFDSWGQGTLVTVSS VL: DIQMTQSPSTLSASAGDRVTITCRASQSISSWLAWYQQKPGKAPKFLIYKASRLERGVPSRFSGSGSGTEFSLTISSLQPDDFATYYCLEYSSYIRTFGQGTKVEIK	434	415	385	382	352	364	411	21.7 fold relative to 224F3	–	–	–
mAb4-7789 (bispecific, mAb1-6584/mAb1-6463) (bispecific antibody, V domains shown) VH 1: EVQLVQSGAEVKKPGESLRISCKGSGYSFRPYWIGWVRQMPGKGLEWMGMIDPSDSYTDYGPSFRGHVTISADKSISTAYLQWSSLKASDTAMYYCARVRIRAGAFDIWGQGTMVTVSS VL 1: DIVMTQSPLSLPVTPGEPASISCRSSQSLLHSTWYNYLNWYLQKPGQSPQLLIYLGKNRASGVPDRFSGSGSGTDFTLKISRVEAEDVGVYYCMQVLHIPYTFGQGTKLEIK VH 2: not shown VL 2: not shown	–	–	–	–	–	–	–	–	–	–	3530
mAb1-4707 (antibody, V domains shown) VH: EVQLVESGGGLVQPGRSLRLSCAASGFTFGDYAMHWVRQAPGKGLEWVSGISWVSGSIGYARSVKGRFTISRDNAKNSLYLQMNSLRAEDTALYYCAKGQYDEDAGMDVWGQGTTVTVSS VL: DIQMTQSPSSLSASVGDRVTITCRASQSIRSYLNWYQQKPGKAPKLLIYAASSLQSGVPSRFSGSGSGTDFTLTISSLQPEDFATYYCQQGYPTWTFGGGTKVEIK	662	714	697	685	629	581	586	35.9 fold relative to 224F3	–	–	–

Next, values leading:

FXa generation rate at 3.2 nM mAb [1] [pM/min]	FXa generation rate at 6.3 nM mAb [1] [pM/min]	FXa generation rate at 12.5 nM mAb [1] [pM/min]	FXa generation rate at 25 nM mAb [1] [pM/min]	FXa generation rate at 50 nM mAb [1] [pM/min]	FXa generation rate at 100 nM mAb [1] [pM/min]	FXa generation rate at 200 nM mAb [1] [pM/min]	Peak stimulatory activity relative to 224F3 [2]	Maximum stimulation (fold), at 4060 nM BiAb [3] [fold]	Maximum stimulation (fold), at 533 nM BiAb [3] [fold]	Maximum stimulation (fold), at 253 nM BiAb [3] [fold]	Binder
–	–	–	–	–	–	–	–	1270	–	–	mAb4-7786 (bispecific, mAb1-6081/mAb1-6463) (bispecific antibody, V domains shown) VH 1: EVQLVESGGGLVQPGRSLKLSCAASGFTFHDYAMHWVRQVPGKGLEWVSGISWRGDIIGYVDSVKGRFTISRDNAKNSLYLQLNSLRAEDTALYYCVKSYGSGSFYNAFDSWGQGTLVTVSS VL 1: DIQMTQSPSTLSASAGDRVTITCRASQSISSWLAWYQQKPGKAPKFLIYKASRLDRGVPSRFSGSGSGTEFSLTISSLQPDDFATYYCLEYSSYIRTFGQGTKVEIK VH 2: not shown VL 2: not shown
–	–	–	–	–	–	–	–	–	5200	–	mAb4-5925 (bispecific, mAb1-4857/mAb1-6723) (bispecific antibody, V domains shown) VH 1: EVQLVESGGGLVQPGRSLKLSCAASGFTFDDYAMHWVRQVPGKGLEWVSGISWRGDIIGYVDSVKGRFTISRDNAKNSLYLQLNSLRAEDTALYYCVKSYGSGSFYNAFDSWGQGTLVTVSS VL 1: DIQMTQSPSTLSASAGDRVTITCRASQSISSWLAWYQQKPGKAPKFLIYKASRLERGVPSRFSGSGSGTEFSLTISSLQPDDFATYYCLEYSSYIRTFGQGTKVEIK VH 2: EVQLVQSGAEVKKPGESLRISCKGSGYSFTTSWIVWVRQMPGKGLEWMGMIDPSDSFTSYSPSFQGHVTISADKSISTAYLQWSSLKASDTAMYYCARLHYYHSEEFDVWGQGTLVTVSS VL 2: EIVLTQSPGTLSLSPGERATLSCRASQSVSSSYLAWYQQKPGQAPRLLIYGASSRARGIPDRFSGSGSGTDFTLTISRLEPEDFAVYYCQQFGSSRLFTFGQGTKLEIK
43	65	97	131	173	198	208	10.4 fold relative to 224F3	–	–	–	mAb1-4071 (antibody, V domains shown) VH: EVQLVQSGAEVKKPGESLRISCKGSGYSFTPYWIGWVRQMPGKGLEWMGMIDPSDSYTDYGPSFRGHVTISADKSISTAYLQWSSLKASDTAMYYCARVRIREGAFDIWGQGTMVTVSS VL: DIVMTQSPLSLPVTPGEPASISCRSSQRLLHSTGYNYLNWYLQKPGQSPQLLIYLGSRRASGVPDRFSGSGSGTDFTLKISRVEAEDVGVYYCMQALHIPYTFGQGTKLEIK
383	550	752	851	989	1000	960	50.1 fold relative to 224F3	–	–	–	mAb1-4624 (antibody, V domains shown) VH: EVQLVQSGAEVKKPGESLRISCKGSGYRFTSYWIGWVRQMPGKGLEWMGMIDPTDSYTDYGPSFRGHVTISADKSISTAYLQWSSLKASDTAMYYCARVRIMSGAFDIWGQGTMVTVSS VL: DIVMTQSPLSLPVTPGEPASISCRSSQSLLHSTWYNYLNWYLQKPGQSPQLLIYLGSNRASGVPDRFSGSGSGTDFTLKISRVEAEDVGVYYCMQVLHIPYTFGQGTKLEIK
370	390	381	373	369	375	401	20 fold relative to 224F3	–	–	–	mAb1-4763 (antibody, V domains shown) VH: EVQLVESGGGLVQPGRSLRLSCAASGFTFGDYAMHWVRQAPGKGLEWVSGISWNSGSIGYAKSVKGRFTISRDNAKNSLYLQMNSLRAEDTALYYCAKGQYDEDAGMDVWGQGTTVTVSS VL: DIQMTQSPSSLSASVGDRVTITCRASQWISSYLNWYQQKPGKAPKLLIYAASSLPSGVPSRFSGSGSGTDFTLTISSLQPEDFATYYCQQGYPTWTFGGGTKVEIK
